US20230406926A1 (Kyowa Kirin, published 2023)
Values belong to the binder of their own block, whether it stands above or below them.

How the values were obtained:
CD3 on T cells = target: T1, CD3 on T cells (UniProt P07766 23-207, limits assumed); test: flow cytometry on T cells by the method of Example 3, fluorescently labeled secondary antibody
T1 construct: whole, on cells; also called CD3 on the surface of the membrane
Protocol: Each of the various antibodies was added to T cells at a final concentration of 10 g/mL and allowed to react at 4° C. for 1 hour. After washing, Goat anti-Human IgG F(ab)₂-FITC (Acris Antibodies GmbH) diluted to 30 μg/mL was added thereto and allowed to react at 4° C. for 1 hour.
As a positive control, 30 μg/mL of an anti-CD3 antibody OKT-3 (abcam. plc) was used as the primary antibody, and Goat anti-mouse IgG F(ab)₂-FITC (Dako, Inc.) was used as the secondary antibody. After washing, the MFI of the antibody bound to T cells was measured with a flow cytometer Cytomics FC 500 MPL (Beckman Coulter, Inc.).

HER2 = target: T2, HER2 (human, UniProt P04626 23-1255); test: flow cytometry competition by the method of Example 3 (SK-BR-3 cells): inhibition of the binding of fluorescently labeled Trastuzumab
T2 construct: whole, on cells; also called HER2 on the surface of the cell membrane
Protocol: Subsequently, binding inhibition analysis by flow cytometry was performed using an HER2-positive human breast cancer cell line SK-BR-3 (ATCC HTB-30).
As a negative control, human serum-derived IgG1/kappa (Millipore, Inc.) at the same concentration was added. After washing, mean fluorescent intensity (MFI) of the binding of SK-BR-3 cells was measured with a flow cytometer Cytomics FC 500 MPL (Beckman Coulter, Inc.).

[1] = target: cynomolgus monkey CD3 on HSC-F cells (cynomolgus monkey, UniProt Q95LI5 22-198); test: flow cytometry, hybridoma supernatant on HSC-F cells, Alexa 647 anti-human IgG
Protocol: The screening of anti-CD3 antibody-producing hybridomas was performed by flow cytometry. Cells cultured in a flask for floating cell culture were collected, washed twice with PBS, and then suspended in a staining buffer (PBS containing 0.02% EDTA, 0.05% NaN₃, and 1% BSA), and prepared so that the viable cell count was 2.0 to 5.0×10⁵ cells/50 μL. […] As negative control cells, unstained KHYG-1 cells (JCRB cell bank JCRB156) were used.
These three types of cells were mixed in equal amounts, and the resultant was dispensed into a 96-well plate at 50 μL/well, and incubated on ice for 30 minutes, and then, an equal amount of the undiluted hybridoma supernatant solution was added thereto and mixed therewith, and placed at 4° C. for 30 minutes. […] After performing centrifugation of the cells and washing with a staining buffer twice, the cells were suspended in a staining buffer, and the fluorescent intensity was measured with a flow cytometer CyAn ADP (Beckman Coulter, Inc.).

[2] = target: T3, His-tag-fused human CD3D&E protein (Sino Biological, Inc.) (human, UniProt P07766 23-126; P04234 22-105); test: SPR (Biacore), His-tagged human CD3D&E captured on anti-tetra His antibody, antibody as analyte, single cycle kinetics
T3 construct: also called soluble CD3; human CD3 protein
T3 sequence (P07766 23-126, chain 1 of 2): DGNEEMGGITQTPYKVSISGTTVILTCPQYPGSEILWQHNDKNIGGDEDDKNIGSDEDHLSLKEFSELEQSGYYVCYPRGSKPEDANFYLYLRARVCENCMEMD
T3 sequence (P04234 22-105, chain 2 of 2): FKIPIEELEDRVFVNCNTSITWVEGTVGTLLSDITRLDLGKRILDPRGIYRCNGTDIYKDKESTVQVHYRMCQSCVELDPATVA
Protocol: The binding affinity of these antibodies for CD3 was measured by Biacore (GE Healthcare). Specifically, an anti-tetra His mouse antibody (QIAGEN NV.) was immobilized on a CM5 sensor chip at approximately 8000 RU using an amine coupling kit (GE Healthcare). As the coupling buffer, 10 mM sodium acetate (pH 4.5) was used. As the ligand, a His-tag-fused human CD3D&E protein (Sino Biological, Inc.) dissolved in HBS-EP(+) buffer at 5 μg/mL was captured at 5 μL/min for 120 seconds.
Subsequently, bispecific antibody solutions obtained by 2-fold serial dilution for 5 times from 10 μg/mL was added as the analyte at a flow rate of 30 μL/min, and binding reaction between each antibody and the analyte was measured for 2 minutes, and a dissociation reaction was measured for 5 minutes. The measurement was performed by single cycle kinetics method. The obtained sensorgram was analyzed using Bia Evaluation Software (GE Healthcare), and the kinetic constant of each antibody was calculated.

Sequence of cynomolgus monkey CD3 on HSC-F cells (Q95LI5 22-198): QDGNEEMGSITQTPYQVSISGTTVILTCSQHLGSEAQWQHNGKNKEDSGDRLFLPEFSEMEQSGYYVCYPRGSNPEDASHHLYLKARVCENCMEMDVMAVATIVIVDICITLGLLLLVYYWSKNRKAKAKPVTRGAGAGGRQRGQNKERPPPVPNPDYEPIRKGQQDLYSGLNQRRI
T1 sequence (P07766 23-207 limits assumed): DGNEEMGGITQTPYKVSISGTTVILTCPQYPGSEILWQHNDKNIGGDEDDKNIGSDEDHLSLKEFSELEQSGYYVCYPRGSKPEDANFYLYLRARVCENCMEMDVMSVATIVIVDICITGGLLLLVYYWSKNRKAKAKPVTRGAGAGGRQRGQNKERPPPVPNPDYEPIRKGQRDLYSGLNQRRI

binding result (CD3 on T cells): no binding (tested: 10 nM)
binding result (HER2): no binding
B1: DNP2_IgG1 (DF) (antibody, V domains shown)
VH: QVQLVQSGAEVKKPGASVKVSCKASGYTFTSYGISWVRQAPGQGLEWMGWISAYNGNTNYAQKLQGRVTMTTDTSTSTAYMELRSLRSDDTAVYYCARWDSSSWSFDYWGQGTLVTVSS
VL: DIQMTQSPSSLSASVGDRVTITCRASQGISSWLAWYQQKPEKAPKSLIYAASSLQSGVPSRFSGSGSGTDFTLTISSLQPEDFATYYCQQYNSYPYTFGQGTKLEIKR
notes: also called IgG1-type anti-2,4-dinitrophenyl (DNP) antibody, clone DNP2

binding result [1]: binds
B2: anti-CD3 monoclonal antibody KM14 (antibody, V domains shown)
VH: QVQLVESGGGVVQPGRSLRLSCEASGFTFSSHGMHWVRQAPGKGLEWVASIWYDGSKKYYADSVKGRFTISRDNSKNTLDLQMNSLRAEDTAVYYCAKTLYYYGSERAHGLDVWGQGTTVTVSS
VL: AIQLTQSPSSLSASVGDRVTITCRASQGISSALAWYQQKPGKAPNLLIYDASSLESGVPSRFSGSGSGTDFTLTISSLQPEDFATYYCQQFNSYPRTFGQGTKVEIK
notes: also called hybridoma clone KM14

Kd [2]: 12.6 nM
B3: 4D5mut_scSP34_IgG1 (DF) (bispecific antibody)
chain 1: EVQLVESGGGLVQPKGSLKLSCAASGFTFNTYAMNWVRQAPGKGLEWVARIRSKYNNYATYYADSVKDRFTISRDDSQSILYLQMNNLKTEDTAMYYCVRHGNFGNSYVSWFAYWGQGTLVTVSSGGGGSGGGGSGGGGSQAVVTQESALTTSPGETVTLTCRSSTGAVTTSNYANWVQEKPDHLFTGLIGGTNKRAPGVPARFSGSLIGDKAALTITGAQTEDEAIYFCALWYSNLWVFGGGTKLTVLGTKYGPPCPPCPAPEFEGGPSVFLFPPKPKDTLMISRTPEVTCVVVDVSQEDPEVQFNWYVDGVEVHNAKTKPREEQFNSTYRVVSVLTVLHQDWLNGKEYKCKVSNKGLPSSIEKTISKAKGQPREPQVCTLPPSQEEMTKNQVSLSCAVKGFYPSDIAVEWESNGQPENNYKTTPPVLDSDGSFFLVSKLTVDKSRWQEGNVFSCSVMHEALHNRFTQKSLSLSLGK
chain 2: not shown
chain 3: not shown

Kd [2]: 108 nM
B4: 4D5mut_scSP34(H05′)_IgG1 (DF) (bispecific antibody)
chain 1: EVQLVESGGGLVQPKGSLKLSCAASGFTFNTYAMNWVRQAPGKGLEWVARIRSKYNNYATYYADSVKDRFTISRDDSQSILYLQMNNLKTEDTAMYYCVRHGNFGNSDVSWFAYWGQGTLVTVSSGGGGSGGGGSGGGGSQAVVTQESALTTSPGETVTLTCRSSTGAVTTSNYANWVQEKPDHLFTGLIGGTNKRAPGVPARFSGSLIGDKAALTITGAQTEDEAIYFCALWYENLWVFGGGTKLTVLGTKYGPPCPPCPAPEFEGGPSVFLFPPKPKDTLMISRTPEVTCVVVDVSQEDPEVQFNWYVDGVEVHNAKTKPREEQFNSTYRVVSVLTVLHQDWLNGKEYKCKVSNKGLPSSIEKTISKAKGQPREPQVCTLPPSQEEMTKNQVSLSCAVKGFYPSDIAVEWESNGQPENNYKTTPPVLDSDGSFFLVSKLTVDKSRWQEGNVFSCSVMHEALHNRFTQKSLSLSLGK
chain 2: not shown
chain 3: not shown
